Source: paper PMC2874008, “Agrin Binds BMP2, BMP4 and TGFβ1” (PLoS ONE, 2010)

B1: N-terminal part of rat agrin (Agrin-Nterm) (domain or fragment)
chain: RSDVCRGMLCGFGAVCEPSVEDPGRASCVCKKNACPATVAPVCGSDASTYSNECELQRAQCNQQRRIRLLRQGPCGSRDPCANVTCSFGSTCVPSADGQTASCLCPTTCFGAPDGTVCGSDGVDYPSECQLLSHACASQEHIFKKFNGPCDPCQGSMSDLNHICRVNPRTRHPEMLLRPENCPAQHTPICGDDGVTYENDCVMSRIGATRGLLLQKVRSGQCQTRDQCPETCQFNSVCLSRRGRPHCSCDRVTCDGSYRPVCAQDGHTYNNDCWRQQAECRQQRAIPPKHQGPCDQTPSPCHGVQCAFGAVCTVKNGKAECECQRVCSGIYDPVCGSDGVTYGSVCELESMACTLGREIQVARRGPCDPCGQCRFGSLCEVETGRCVCPSECVESAQPVCGSDGHTYASECELHVHACTHQISLYVASAGHCQTCGEKVCTFGAVCSAGQCVCPRCEHPPPGPVCGSDGVTYLSACELREAACQQQVQIEEAHAGPCEPAECGSGGSGSGEDDECEQELCRQRGGIWDEDSEDGPCVCDFSCQSVPRSPVCGSDGVTYGTECDLKKARCESQQELYVAAQGACRGPTLAPLLPVAFPHCAQTPYGCCQDNFTAAQGVGLAGCPSTCHCNPHGSYSGTCDPATGQCSCRPGVGGLRCDRCEPGFWNFRGIVTDGHSGCTPCSCDPRGAVRDDCEQMTGLCSCRPGVAGPKCGQCPDGQVLGHLGCEADPMTPVTCVEIHCEFGASCVEKAGFAQCICPTLTCPEANSTKVCGSDGVTYGNECQLKAIACRQRLDISTQSLGPCQ
modifications: glycosylation at multiple sites (proteoglycan smear on SDS-PAGE)
notes: not agrin residues; rat agrin, residues Asp65-Gln865, amplified from rat agrin cDNA NM_175754.1; numbers count on: the protein encoded by NM_175754.1; Calculated molecular mass of the recombinant protein 88,054 Da
B2: Mature human BMP2 (ligand, UniProt P12643 283-396, looked up)
chain: QAKHKQRKRLKSSCKRHPLYVDFSDVGWNDWIVAPPGYHAFYCHGECPFPLADHLNSTNHAIVQTLVNSVNSKIPKACCVPTELSAISMLYLDENEKVVLKNYQDMVVEGCGCR
notes: bone morphogenetic protein 2, human, mature growth factor; source: bought: R&D Systems
B3: Mature human BMP4 (ligand, UniProt P12644 293-408, looked up)
chain: SPKHHSQRARKKNKNCRRHSLYVDFSDVGWNDWIVAPPGYQAFYCHGDCPFPLADHLNSTNHAIVQTLVNSVNSSIPKACCVPTELSAISMLYLDEYDKVVLKNYQEMVVEGCGCR
notes: bone morphogenetic protein 4, human, mature growth factor; source: bought: R&D Systems

Columns and labels:
[1] = molecular target: Mature human TGFβ1 (human); test: SPR; BIAcore X; BMP2, BMP4 or TGFβ1 immobilised on CM5 chips by amine coupling, Agrin-Nterm injected at 20 µl/min; 20 mM HEPES, 150 mM NaCl, 5 mM EDTA, 0.005% Tween 20, pH 7.5; global fit, 1:1 Langmuir model
Mature human BMP4 = molecular target: B3; test: SPR; solution-competition: constant concentration of growth factor (40 nM BMP2, 40 nM BMP4 or 4 nM TGFβ1) preincubated 30 min at room temperature with increasing Agrin-Nterm, injected over immobilised ECD of the receptor (BMPR1A or TGF-βsRII) on CM5; 20 mM HEPES, 150 mM NaCl, 5 mM EDTA, 0.005% Tween 20, pH 7.5; 50% decrease in kobs by the method of Nieba et al.; conditions: both partners purified
Mature human BMP2 = molecular target: B2; test: as above; conditions: both partners purified
[2] = molecular target: Mature human TGFβ1 (human); test: as above
[3] = molecular target: B1; test: SPR; BIAcore X; BMP2, BMP4 or TGFβ1 immobilised on CM5 chips by amine coupling, Agrin-Nterm injected at 20 µl/min; 20 mM HEPES, 150 mM NaCl, 5 mM EDTA, 0.005% Tween 20, pH 7.5; global fit, 1:1 Langmuir model; conditions: both partners purified

Chain of Mature human TGFβ1 (human) (P01137 279-390): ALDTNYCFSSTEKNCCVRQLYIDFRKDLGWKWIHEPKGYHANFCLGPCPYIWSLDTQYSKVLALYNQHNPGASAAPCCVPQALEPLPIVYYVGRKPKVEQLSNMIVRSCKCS

Row | Binder | Kd [1] [nM] | koff [1] [s⁻¹] | kon [1] [M⁻¹ s⁻¹] | IC50 (Mature human BMP4) [nM] | IC50 (Mature human BMP2) [nM] | IC50 [2] [nM] | Kd [3] [nM] | koff [3] [s⁻¹] | kon [3] [M⁻¹ s⁻¹]
1 | B1 | 51.5 | 0.000172 | 3340 | 345 | 12 | 2000 | – | – | –
2 | B2 | – | – | – | – | – | – | 262 | 0.000286 | 1090
3 | B3 | – | – | – | – | – | – | 257 | 0.000412 | 1610
